Measured values: US20040096935A1
Several values for one entry are separate records, joined by “and”; a condition that tells them apart may be missing. Identical values can stand only once.

B1: recombinant human IL-20 expressed in CHO cells (ligand)
chain: RSPKSKRKGQGRPGPLAPGPHQVPLDLVSRMKPYARMEEYERNIEEMVAQLRNSSELAQRKCEVNLQLWMSNKRSLSPWGYSINHDPSRIPVDLPEARCLCLGCVNPFTMQEDRSMVSVPVFSQVPVRRRLCPPPPRTGPCRQRAVMETIAVGCTCIF

Legend:
[1] = molecular target: IL-17 receptor (immobilised receptor of the first BIAcore experiment of Example 8) (UniProt Q96F46); test: BIAcore SPR; IL-17 (R&D) at 25 ug/mL over immobilised receptor
[2] = molecular target: IL-17 receptor (immobilised receptor of the first BIAcore experiment of Example 8) (UniProt Q96F46); test: BIAcore SPR; conditioned CHO supernatant over immobilised receptor; IL-20 concentration estimated ~25 ug/mL; pC4 vector control medium ~20 RU

Molecule	binding response (RU) [1] [RU]	binding response (RU) [2]
recombinant human IL-17 (R&D Systems) (from UniProt Q16552 20-155) (ligand)	60	
B1		115 RU and 65 RU
